{"source": "patent US20220380409A1", "about": "(published 2022)", "binders": {"B1": {"name": "RCM cyclized version of the HWSAN (SEQ ID NO:11) peptide (peptide)", "peptide": "HWSAN", "modifications": "staple (positions not given here); also: RCM ring between olefin-bearing non-natural residues, places not given here, biotinylated"}, "B2": {"name": "binary ligand hevwh-YLGHK (peptide)", "peptide 1": "HEVWH", "peptide 2": "YLGHK", "modifications": "not fully specified (bridges)"}}, "key": {"GST-PfLDH [1]": {"biological_target": "T1, GST-PfLDH (UniProt Q27743 2-316)", "test": "ELISA"}, "GST-PfLDH [2]": {"biological_target": "T1, GST-PfLDH", "test": "sandwich ELISA"}, "GST-PvLDH": {"biological_target": "GST-PvLDH (UniProt P84793 1-313)", "test": "sandwich ELISA"}, "PfLDH protein": {"biological_target": "PfLDH protein (UniProt Q27743 2-316)"}}, "note": "Ends that are not written are not given here."}
{"binder": "B1", "values": [{"measurement": "EC50", "setting": "GST-PfLDH [1]", "result": 2.57, "unit": "nM"}]}
{"binder": "B2", "values": [{"measurement": "EC50", "setting": "GST-PfLDH [2]", "result": 15.1, "unit": "nM"}, {"measurement": "EC50", "setting": "GST-PvLDH", "result": 12, "unit": "nM"}, {"measurement": "Kd", "setting": "PfLDH protein", "result": "~10", "unit": "nM"}]}
